Results taken from US9266964.
Blank lines part the entries; values can stand above or below the binder they belong to.

Target: human plasma kallikrein (human) (UniProt P03952)
Test: ELISA; signal on coated biotinylated human plasma kallikrein divided by signal on streptavidin; Fab

Chain of human plasma kallikrein (human) (P03952 20-390, chain 1 of 2): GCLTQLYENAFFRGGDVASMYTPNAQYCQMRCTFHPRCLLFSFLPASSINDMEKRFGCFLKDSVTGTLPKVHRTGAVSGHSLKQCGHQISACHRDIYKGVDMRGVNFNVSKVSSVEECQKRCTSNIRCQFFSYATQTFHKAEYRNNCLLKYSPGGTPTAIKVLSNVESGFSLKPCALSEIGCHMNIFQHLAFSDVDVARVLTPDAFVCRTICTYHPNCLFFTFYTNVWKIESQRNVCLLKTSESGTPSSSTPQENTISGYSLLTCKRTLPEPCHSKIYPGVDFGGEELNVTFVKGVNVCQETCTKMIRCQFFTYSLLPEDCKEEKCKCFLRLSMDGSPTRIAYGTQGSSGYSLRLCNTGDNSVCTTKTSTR
Chain of human plasma kallikrein (human) (P03952 391-638, chain 2 of 2): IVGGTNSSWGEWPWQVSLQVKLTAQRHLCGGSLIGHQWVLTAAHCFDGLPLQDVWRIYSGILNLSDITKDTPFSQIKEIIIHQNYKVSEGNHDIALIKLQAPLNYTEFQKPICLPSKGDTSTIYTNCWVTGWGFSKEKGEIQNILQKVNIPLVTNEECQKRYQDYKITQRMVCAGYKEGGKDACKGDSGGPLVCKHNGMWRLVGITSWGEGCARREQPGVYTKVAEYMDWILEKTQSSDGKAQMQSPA

Human pKal ELISA (T/B) (T/B (target signal / background signal)): 1.5
B1: M28-F01 (Fab, V domains shown)
VH: EVQLLESGGGLVQPGGSLRLSCAASGFTFSVYLMHWVRQAPGKGLEWVSGISPSGGYTQYADSVKGRFTISRDNSKNTLYLQMNSLRAEDTAVYYCARPGGLDAFDIWGQGTMVTVSS
VL: DIQMTQSPSSLSASVGDRVTITCRASQSINTYLNWYQQKPGKAPKVLIHAASTLESGVPSRFSGSGSGTDFTLTISSLQPEDFATYYCQQSYSTPPTFGQGTKVEIK

Human pKal ELISA (T/B) (T/B (target signal / background signal)): 2
B2: M29-E02 (Fab, V domains shown)
VH: EVQLLESGGGLVQPGGSLRLSCAASGFTFSRYPMMWVRQAPGKGLEWVSVIYPSGGDTFYADSVKGRFTISRDNSKNTLYLQMNSLRAEDTAVYYCASGDDYLWEAAVYWGQGTLVTVSS
VL: QSVLTQPPSVSEAPRQRVTISCSGSSSNIGNNAVSWYQQLPGKAPKLLIYYDDLLPSGVSDRFSGSKSGTSASLAISGLRSEDEADYYCAAWDDSLNGFVFGTGTKVTVL
